Source: the DeepSol protein solubility set

Assay: soluble on expression in E. coli; label from the status in PepcDB or PDB records

Soluble on expression in E. coli, not soluble:
MGSDKIHHHHHHMKQKNYHSCTVGQIVAGNFDTTKVFSRYHIDFCCHGNTPFAEACRNRGIDPEAVAHELNELQENTVSNAPDFAGWPIDLLIDYVLKIHHRGIRAKGPQIEALLTKVTEAHSKNHPELLQVQALFRDSLLDLENHLSKEENVLFPYVYEMFQAKEEGLKVAKFHCGTILYPIEVMEDEHNHEGERFEKISSLTNGFTAPEDACASFRLVLQQLKQFEEALHEHIHLENNIIFPRALELEKKEAI
MGSDKIHHHHHHHEEADYSQEAHHLVEFGTLLQDDPNVIVPKYHADLSTRDVLAMDFVPSHPIDDLEAADQSERDRVATQLIALMMREVFSFQRVQSDPNFANFRWQPDTGRVVLLDFGATRVLSDNLVNAARQVLRPALDNDLTALANALRELGLLDDALPDQARKTILEMVALANEPMMDPDGFDFGNTSLVTELRTSGMALGQDRSIQSIPPIEVLYLQRKAAGLFLLATRLRARVDLRSLFKS
MAHHHHHHMDSGTKREFGRNVTNVDDFKGAKLTPSKIHHQKFEGSDKRHGVRLADEGKWCIHKRSRVEPVAAGPSRERSVEETKSTTTCCSLPLPSQETNLCSIRGDSNTCSSDDSSIERYFDESCEAIEAPTAPAPRPPSPTWNNALRTVSGTAAAVLQDLKNAASLQTDQSSSSEVLPSPPVIPLIL
MGSDKIHHHHHHMTGLTEDLFGELLPPASPPQACVAGGGAPSPDKASRGKSVLPARPDPAIDALARRLPPNLYLGTSSWSYNGWNGLVYDGEYSDNLLSRKGLAAYSRHPLLRAAGIDRGFYGPIPLADYLSYAAQVPEQFRFLVKAPASVCDAWLRGSDGVGRLANAAFLDAEIAIRDFITPATSGLGAKCGPLLFQLSPLGSLANDAAAFLDRLDGFLSALPPLDPSITPHACYAVEMRDPVLLTPRYIKLLRRYGVRFCLSARDRLPPVHRQASAQALMDAEAPGPLVLRWMLHAGRPYEVAESIYAPFNRLVDEDPETRDAIADLVVRTLNAGQSATVIISNKAEGSAPLTCIRLAEAIAARL
MNAERCEFIAGNSLIEVIPSISDDRPIHLISGDIGPFEAGVPCRIPVWTAILMKRKHNCKVVAPQWMDVDELKKILTSETESQGLAKLPDHFFEISHMLVRDAREDIFEVEAVKSLVQDIYDRRDAKLRSSAIEFLRQNQTCHAQLDNVQLIEASSARATLEACRQMGAVVRNKHESTPL
MPKVDVYDINGKVVGEINLRDDIFGIEVNKHAIHQVIVNQLANRRQGTQSTKTKSEVRGGGRKPWRQKGTGRARHGSIRSAQWVKGGIALGPKPRSYKYAVPKKLRRLALKSALSSKVNENELLVLDSLNFDEIKTKQMANVLKNLKVNDTTAVLVLADKNRNVELSARNIPGLKTLFVNTMNVYDIIRHDKFIITKDAVAKVEEVYA
MAHHHHHHMAQRVHYRRHNHYNTKSNKVRPVRTPGGKLTIHVVKKKAGKPKCADCKTAIQGVKALRPADNYRARRKNRTVARAYGGSICARCIRERIMRAFLFEEQKCVRQVLKEKKKQEKKVKKVKKEKKKVNAKEVKKTATDNKKAKKVADKKKGK
MSLKIKFKRLDYQEQCRDQILGVFKGIDLKEPENDAQRISNPVFEIGAIKDLLLENIENLRSKQKITQGSVGIDKSLNCDILMETGTGKTFCFLECVYALHKNHHLSKFIVLTPSNAIKLGVLKSVEITREFFKSEYSNTHLESYEDIERFILASNHKCCVLVMTFSAFNKEKNTINKSCLENTNLFNGATSYMQALVSMRPIVIMDEPHRFLGDKTKKYLEQLNALLTLRFGATFKDDYNNLIYTLDSKKAFDCALVKSISVASVGESNECFLELKGIEKKEAAINYTDLENKTQSVKVKEHDNLGVVTQISALEDYIVEKITKTEIRFLNGFNLLLDQKEPFSHLLEGEQEVMLKEAIKSHFEREEGLFKKGIKALCMVFISGVNSYLSENEKPAKLALLFEKLYQQKLEEVLKKPLDENYRAYLECTREDIKKVHGGYFAKSKKEGDETKTIELILKEKEKLLSFDSDLRFIFSQWALQEGWDNPNVMTICKLAPSHSNITKLQQIGRGLRLAVNDKGERITKEHADFDFVNELVVIVPQVEGDFVGAIQQEISEHSLIKQEFSAEELEKSGVVKKGRYGFLLETLEGLGFGEKTGDENFKLTLNQNEFLEKEPELEKLKDEKYLDFEKLKDFLKDRLIGNSRVRDKNERKSEKIKINKENFKKFETLWESLNHQARIAYAIDSESLIDEIVKNINSSFNVSSKIVSVTTHKKVETMGNNAKTEIFERENACVWSLHEFISALSNKVKLSFKSVAKVLENIDENKFNEIKKNEQEGLRRLEELFLEIIYQNIKDKISYQMRETTIKNRKNDAFYDEKGEIREFLDGSLGADKYEIKNSSVREKCLYENFMQVDSEIEKDTIEESNDTKIIVFGKLPRVKIPIGLNQTYSPDFGYVVENNDKKVLLVVETKGVDKKSELRPEEERKISTAKKFFEALKKQGVNIEYKTKMEKDQLSALINEVLNRKDEGHHHHHH
MGSDKIHHHHHHMIEVTQGSSPLVLGLPHTGTDVPAEVAQHLNDRGQALADTDWHIHDLYAGLVEGVTTVRTPIHRYVIDVNRDPEGVSLYPGQNTTTLVPLTDFDGHPIWQQEPDAAETAHRLETYHVPYHAALEAEMKRVAGLHGFAILYDCHSIRGDIPFLFEGRLPDFNVGTNLGATCAPSIEDMVFQRCQRAEGYTSVLNGRFKGGWTTRHYGRPDQGWHAIQMELAQATYCDEQPPWRYDPVRADRLRGHLTQILTDLTEWRPA
MKFSVLMSLYIKENPQFLRECFESLVAQTRQADEIVLVFDGVVTPDLEFVVTEFETKLPLKLVKLPQNRGLGKALNEGLLHCDYDWVFRMDTDDICVPDRFEKQVAFIEQHPESIIFGGQIAEFGKNVNDIVAYRNVPTSAQEIIKFTQKRCPFNHMTVAYQKSAVINCGGYEDLQEDYYLWIKLVAQGLYMANLPDILVYARVGNGMVLEHHHHHH
MHKPCVIIPVFDHELAVPDVVKAVRAAGLPCVLVDDASSPACAAVLRQLAQGDEIYLVCLPVNQGKGGAVMAGFREAARLGFSHALQVDADGQHDLSDIPVFLEQSRQCPEALICGYPQYDESVPKGRLYARYLTHVWVWINTLSLQIRDSMCGFRLYPLAPVLVLIDAVRIGKRMDFDSEILVRLAWRGQAMRWLPTRVHYPQDGLSHFRLFHDNALISTMHAKLFFGMLMRLPLILWRRWRSLEHHHHHH
MGSDKIHHHHHHMNKHFTFTINSICLDENYHPSDKTRITTNFANLARGSHRQANLRNALKMIDNSFNALAHWDNPKGDRYSVELEIISVNLDIDGSGQTFPSIEVLKTNIVDHKTNKRIEGIVGNNFSSYVRDYDFSVLLAEHNKGQAKFSIPDDFGGLHGKLFQSFVNSDAYKQNFNKPPVICLSVSDNKTYHRIENQHPVLGVEYQPNESSLTEQYFKKMGLQVRYFMPPNSVAPLAFYFFGDLLNDYTHLELISTISTMGTFQKIYRPEIYNANAVAGKCYQPNLKNLDHSLTQIVYDRAERSQLANEQGKFAAEHFIKPYQTFFEQWPANYL
MNTAQLTSKQTLSYVEQTALVLLGMGEDAAAKVLQHFTRDETQRVTRAMAKLNGIKSDSARGVIQNFFEDFREHSGIRGASKEYLSNTLRKALGNDLAKGLLNNLYGDEIRNNMQRLQWVEAETLARFIVNEHPQMQAIFLAYLPADSSSAVLKHLPQDYHDEIIFRIAQLQDIDHQVATDLHELVERCIEKVSASQSVPLSGVKQAADIINRFEGDRGSLMEMLKLHDEEVVNAIEEN

Soluble on expression in E. coli, soluble:
MHIKYDQAMDDETKVEAILYATRNPLSVRSISLILGIEAGAISRIIKKLRLEYKKRNTSLEIAKIGNKYRIQLKKEYYDFAYRVMEPELSKYETGFLATVALNEGASLSFFRKRYGSRTDDMISKLKTMSLIRTSKKGNGTAIYLGENFEKVFGITKKELLERATEYDRQN
MSEKRVQPLARDAMAYVLAGGRGSRLKELTDRRAKPAVYFGGKARIIDFALSNALNSGIRRIGVATQYKAHSLIRHLQRGWDFFRPERNESFDILPASQRVSETQWYEGTADAVYQNIDIIEPYAPEYMVILAGDHIYKMDYEYMLQQHVDSGADVTIGCLEVPRMEATGFGVMHVNEKDEIIDFIEKPADPPGIPGNEGFALASMGIYVFHTKFLMEAVRRDAADPTSSRDFGKDIIPYIVEHGKAVAHRFADSCVRSDFEHEPYWRDVGTIDAYWQANIDLTDVVPDLDIYDKSWPIWTYAEITPPAKFVHDDEDRRGSAVSSVVSGDCIISGAALNRSLLFTGVRANSYSRLENAVVLPSVKIGRHAQLSNVVIDHGVVIPEGLIVGEDPELDAKRFRRTESGICLITQSMIDKLDL
TPPPTQWSYLCHPRVKEVQDEVDGYFLENWKFPSFKAVRTFLDAKFSEVTCLYFPLALDDRIHFACRLLTVLFLIDDVLEHMSFADGEAYNNRLIPISRGDVLPDRTKPEEFILYDLWESMRAHDAELANEVLEPTFVFMRAQTDRARLSIHELGHYLEYREKDVGKALLSALMRFSMGLRLSADELQDMKALEANCAKQLSVVNDIYSYDKEEEASRTGHKEGAFLCSAVKVLAEESKLGIPATKRVLWSMTREWETVHDEIVAEKIASPDGCSEAAKAYMKGLEYQMSGNEQWSKTTR
MKKEPKGAKNRIVIAKDEKNVLTCTSEGFEYTPDIVKNVYGKSSRPALEDWFLTELDFFRRYYPGYEVFTLGSSCVFGEKFVNYLTICEFDIDSTYAFDCLKKALRESDQAIRRKLSAMWKWDIAARKDWSIVFMVGHMDFAYFLQHRKEFQEDAHKRFMSTFTTAETKITSRDYKVMHDGAILPFDETALSPEDRFIFENYQKIKFETTPL
MSWIERIKSNITPTRKASIPEGVWTKCDSCGQVLYRAELERNLEVCPKCDHHMRMTARNRLHSLLDEGSLVELGSELEPKDVLKFRDSKKYKDRLASAQKETGEKDALVVMKGTLYGMPVVAAAFEFAFMGGSMGSVVGARFVRAVEQALEDNCPLICFSASGGARMQEALMSLMQMAKTSAALAKMQERGLPYISVLTDPTMGGVSASFAMLGDLNIAEPKALIGFAGPRVIEQTVREKLPPGFQRSEFLIEKGAIDMIVRRPEMRLKLASILAKLMNLPAPNPEAPREGVVVPPVPDQEPEA
GPGSMTSPAQAQVHSAPSRHAHTSILSQQMLSTPAGHPVSQPDTSQAAPDAPVWRPTTVPWKPVDTQQSACSALPAKTDDAIAAHSLQWERDAAVGNPNDESGRVVSQAFAFPRWMGPPALTSTATSREEGDSPTATVPSMEERWSTFQRLAQASEATFRSMSEATARQHADVTAHQKEIAAYQESQRQLTLQQQQRLDSLTRECAQLRQTEASTKEVVAHQVERLVALESELQTTRVQLSEIRLAQAQCVEERKRLQQACKMHEVHTSELQASLQFADEVVRSMRQTVAACEREKNEALMQQYSNFESYRNNLIAAYDKRAAEARDEFAKRVESLQAGMLETVAKREEQLKASWEETATRMRHEYDELVRLGQQRRAAMDTELRERKEQLERDKEFMRVQQREEADMMEQRFRAREETLLDDIARRERELREREAVLRAAQAQQEVDVQRRLQAREAELRAAHDAALKRMADQAAAEREKLSENFMERLQQLSNAHMQQERELERMHREKEREMAQRYRLSGIDGGDRGEVRDRRATEYALASPSMAKEALLKKFETVEQRQRERSDKLRSAFSAQENELQPPL
MGHHKAMPYADVAAFIIELRKREAVAATALEFTILTAARSGETLGAKWHEIDWKDKIWTVPAERMKAAREHRVPLSSRTITILKKLAEFGSDENSFVFPGQKPGKPLSVMAMDMVLRRMEVDVTVHGFRSSFRDWCGEVSNFPRDVAEAALAHLEHHHHHH
